Results taken from PMC7604486 (Proceedings of the National Academy of Sciences of the …, 2020).

Molecular target: T1, Rae1 (NTE-deleted), chain of the crystallized heterotrimer (mouse, UniProt Q8C570 24-368)
T1 sequence (looked up): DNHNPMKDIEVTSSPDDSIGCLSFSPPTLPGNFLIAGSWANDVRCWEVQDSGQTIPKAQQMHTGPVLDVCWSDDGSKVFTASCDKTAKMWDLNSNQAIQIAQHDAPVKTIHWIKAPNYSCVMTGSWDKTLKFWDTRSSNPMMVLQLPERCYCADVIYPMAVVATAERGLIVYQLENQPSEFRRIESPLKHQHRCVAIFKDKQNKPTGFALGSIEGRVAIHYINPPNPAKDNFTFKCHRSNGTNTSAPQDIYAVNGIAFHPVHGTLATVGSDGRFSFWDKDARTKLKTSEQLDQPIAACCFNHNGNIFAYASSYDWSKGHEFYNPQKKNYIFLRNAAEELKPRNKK
Assay: crystal structure

binding result: binds
B1: Nup98 GLEBS region, chain of the crystallized heterotrimer (domain or fragment)
chain: not shown
